Results as given in patent US20030170704A1, “Substance capable of controlling the inclusion of exon 10 of the tau gene, and its therapeutic use against tauopathies” (Max-Planck-Gesellschaft Zur Foerd Der Wissen. E.V., priority 1999, published 2003).

B1: SRp75: serine/arginine-rich (SR) protein splicing regulator, expressed from cDNA under the CMV promoter (protein, UniProt Q08170 1-494, looked up)
Serine/arginine-rich splicing …: MPRVYIGRLSYQARERDVERFFKGYGKILEVDLKNGYGFVEFDDLRDADDAVYELNGKDLCGERVIVEHARGPRRDGSYGSGRSGYGYRRSGRDKYGPPTRTEYRLIVENLSSRCSWQDLKDYMRQAGEVTYADAHKGRKNEGVIEFVSYSDMKRALEKLDGTEVNGRKIRLVEDKPGSRRRRSYSRSRSHSRSRSRSRHSRKSRSRSGSSKSSHSKSRSRSRSGSRSRSKSRSRSQSRSRSKKEKSRSPSKEKSRSRSHSAGKSRSKSKDQAEEKIQNNDNVGKPKSRSPSRHKSKSKSRSRSQERRVEEEKRGSVSRGRSQEKSLRQSRSRSRSKGGSRSRSRSRSKSKDKRKGRKRSREESRSRSRSRSKSERSRKRGSKRDSKAGSSKKKKKEDTDRSQSRSPSRSVSKEREHAKSESSQREGRGESENAGTNQETRSRSRSNSKSKPNLPSESRSRSKSASKTRSRSKSRSRSASRSPSRSRSRSHSRS
B2: U2AF65: constitutive splicing factor, expressed from cDNA under the CMV promoter (protein, UniProt P26368 2-475, looked up)
Splicing factor U2AF 65 kDa …: SDFDEFERQLNENKQERDKENRHRKRSHSRSRSRDRKRRSRSRDRRNRDQRSASRDRRRRSKPLTRGAKEEHGGLIRSPRHEKKKKVRKYWDVPPPGFEHITPMQYKAMQAAGQIPATALLPTMTPDGLAVTPTPVPVVGSQMTRQARRLYVGNIPFGITEEAMMDFFNAQMRLGGLTQAPGNPVLAVQINQDKNFAFLEFRSVDETTQAMAFDGIIFQGQSLKIRRPHDYQPLPGMSENPSVYVPGVVSTVVPDSAHKLFIGGLPNYLNDDQVKELLTSFGPLKAFNLVKDSATGLSKGYAFCEYVDINVTDQAIAGLNGMQLGDKKLLVQRASVGAKNATLVSPPSTINQTPVTLQVPGLMSSQVQMGGHPTEVLCLMNMVLPEELLDDEEYEEIVEDVRDECSKYGLVKSIEIPRPVDGVEVPGCGKIFVEFTSVFDCQKAMQGLTGRKFANRVVVTKYCDPDSYHRRDFW
B3: hSWAP: specific splicing regulator Suppressor of White Apricot, expressed from the SV40 early promoter (protein, UniProt Q12872 1-951, looked up)
Splicing factor, suppressor …: MYGASGGRAKPERKSGAKEEAGPGGAGGGGSRVELLVFGYACKLFRDDERALAQEQGQHLIPWMGDHKILIDRYDGRGHLHDLSEYDAEYSTWNRDYQLSEEEARIEALCDEERYLALHTDLLEEEARQEEEYKRLSEALAEDGSYNAVGFTYGSDYYDPSEPTEEEEPSKQREKNEAENLEENEEPFVAPLGLSVPSDVELPPTAKMHAIIERTASFVCRQGAQFEIMLKAKQARNSQFDFLRFDHYLNPYYKFIQKAMKEGRYTVLAENKSDEKKKSGVSSDNEDDDDEEDGNYLHPSLFASKKCNRLEELMKPLKVVDPDHPLAALVRKAQADSSTPTPHNADGAPVQPSQVEYTADSTVAAMYYSYYMLPDGTYCLAPPPPGIDVTTYYSTLPAGVTVSNSPGVTTTAPPPPGTTPLPPPTTAETSSGATSTTTTTSALAPVAAIIPPPPDVQPVIDKLAEYVARNGLKFETSVRAKNDQRFEFLQPWHQYNAYYEFKKQFFLQKEGGDSMQAVSAPEEAPTDSAPEKPSDAGEDGAPEDAAEVGARAGSGGKKEASSSKTVPDGKLVKASFAPISFAIKAKENDLLPLEKNRVKLDDDSDDDEESKEGQESSSSAANTNPAVAPPCVVVEEKKPQLTQEELEAKQAKQKLEDRLAAAAREKLAQASKESKEKQLQAERKRKAALFLQTLKNPLPEAEAGKIEESPFSVEESSTTPCPLLTGGRPLPTLEVKPPDRPSSKSKDPPREEEKEKKKKKHKKRSRTRSRSPKYHSSSKSRSRSHSKAKHSLPSAYRTVRRSRSRSRSPRRRAHSPERRREERSVPTAYRVSRSPGASRKRTRSRSPHEKKKKRRSRSRTKSKARSQSVSPSKQAAPRPAAPAAHSAHSASVSPVESRGSSQERSRGVSQEKEAQISSAIVSSVQSKITQDLMAKVRAMLAASKNLQTSAS

system: tau exon 10 inclusion (SV10 minigene); assay: RT-PCR of tau exon 10 minigene SV10 1:1 co-transfected with splicing regulator cDNA plasmids in COS cells; format: cell-based, human; conditions: 1:1 co-transfection, FIG. 4
Procedure: Plasmid DNA was purified by cesium chloride banding (Sambrook et al., 1989). The plasmids obtained in Examples 1 and 2 were introduced into cells by the lipofection method (LT1, Panvera).
Plates (100 mm) that had reached ˜30% confluence were transfected with 10 μg of construct DNA or 5 μg of each plasmid for co-transfections. The medium was changed 16 h after transfection, without glycerol shock.
Total RNA was isolated 48 h post-transfection by the TRIzol method (Life Technologies).
For PCR analysis of RNA, 5 mg of total RNA from transiently transfected cells or 1 mg of polyA^+ RNA were reverse transcribed using random hexamer primers and 200 units of reverse transcriptase (RNAase H^− Superscript, Life Technologies), in a total volume of 20 ml for 1 h at 42° C. Part of this reaction mix (5 ml) was then diluted to a final volume of 50 ml, the concentrations of the buffer and dNTPs were adjusted for PCR and the mixture was amplified for 22 cycles. The conditions were: for the endogenous gene, denaturation at 94° C. for 1 min, annealing at 58° C. for 1 min, extension at 72° C. for 1 min; for the constructs, denaturation at 94° C. for 1 min, annealing at 65° C. for 1 min, extension at 72° C. for 1 min.
The primer pair used for the endogenous exon 10 pattern was HT9SmS/1017HT (Table 2b). In the case of transfected cells, the primers INS1 and INS3 (Table 2b) were chosen to only amplify products arising from the constructs.
The RT-PCR experiments were done twice with the polyA^+ RNAs and with total RNAs from three independent transfections, to ensure reproducibility. […] In FIGS. 1-4, the percent of the 10^+ isoform was calculated by scanning the bands from three independent transfections and measuring the areas under the curves (by the IPLab Gel program from Scanalytics).
RT-PCR was performed in a manner as described in Example 4 (using primer pair: INS1/INS3), except that-mammalian cells were analyzed which had been 1:1 co-transfected with tau exon 10 containing minigene constructs (denoted SV 10) and with plasmids containing cDNA of various plicing regulators. […]

Molecule	effect on tau exon 10 inclusion (10+/10- isoform ratio by RT-PCR)
B1	inhibited
B2	inhibited
B3	inhibited
